Results on two substances are retold here after publication PMC12772213.

For experiment [1], the target named is Actin filaments (rabbit skeletal muscle actin) (rabbit) (UniProt P68135).
Experiment [2] shares this target. In words: three-bead optical trap; isometric feedback (hindering load); detachment rate vs. force fitted to the Bell equation, interactions >10 pN excluded; cHMM held through antibody to the S2Tag; 20 °C.
For experiment [3] the target is unchanged. Kind of experiment: three-bead optical trap; pedestal bead stage feedback; time between single actomyosin interactions at saturating (2 mM) ATP, double-exponential distribution; cHMM held through antibody to the S2Tag; 20 °C.
Experiment [4] has the same target. In words: three-bead optical trap; unloaded; cHMM held on pedestal beads through antibody to the S2Tag, actin filament suspended between two trapped beads; 1 µM MgATP; 20 °C; 60 mM MOPS, 25 mM KCl, 1 mM DTT, 1 mM MgCl2, 1 mM EGTA; single-molecule events by bead covariance.
Experiment [5] shares this target. Kind of experiment: three-bead optical trap; unloaded; cHMM held on pedestal beads through antibody to the S2Tag, actin filament suspended between two trapped beads; 2 mM MgATP; 20 °C; 60 mM MOPS, 25 mM KCl, 1 mM DTT, 1 mM MgCl2, 1 mM EGTA; single-molecule events by bead covariance.
The target of the next experiment is Pyrene-actin (rabbit) (UniProt P68135). Kind of experiment: stopped-flow pyrene-actin fluorescence; myosin heads (apyrase-treated) mixed with equimolar pyrene-actin 10 min at RT in KMg25 buffer (60 mM MOPS pH 7, 25 mM KCl, 1 mM EGTA, 1 mM MgCl2, 1 mM DTT), then mixed with ATP; ATP-induced dissociation followed by pyrene fluorescence.
The target of experiment [6] is Actin filaments (rabbit skeletal muscle actin) (rabbit) (UniProt P68135). Kind of experiment: three-bead optical trap; isometric feedback (hindering load); detachment rate vs. force fitted to the Bell equation, interactions >10 pN excluded; cHMM held through antibody to the S2Tag; 20 °C. The source holds these as a separate data set.

Where two headings read alike, the source gives them in different places.

“Human β-cardiac myosin HMM M493I mutant (M493I-cHMM) (from UniProt P12883 1-1935; P05977 1-188; P97457 1-169) (complex)”: the Actin gliding velocity (in vitro gliding assay, cHMM held through S2Tag antibody, rhodamine-phalloidin labeled actin, 32 °C) in experiment [1] is 0.46 µm/s. This substance registered a Bell equation k0 (detachment rate at zero force) in experiment [2] of 12.9 s⁻¹. In experiment [3], this substance gave an actin reattachment rate in optical trap (fast) of 23 s⁻¹ and an actin reattachment rate in optical trap (slow) of 1.62 s⁻¹. For the same substance, the k detach (1 μM ATP) in experiment [4] amounted to 6.26 s⁻¹. Further, the k detach (2 mM ATP) in experiment [5] was found to be 12.1 s⁻¹. The same substance gave a maximum rate of ATP-induced dissociation of actomyosin with Pyrene-actin (rabbit) of 340 s⁻¹.

“Human β-cardiac myosin wild type HMM (WT-cHMM) (from UniProt P12883 1-1935; P05977 1-188; P97457 1-169) (complex)”: the Actin gliding velocity (in vitro gliding assay, cHMM held through S2Tag antibody, rhodamine-phalloidin labeled actin, 32 °C) in experiment [1] was found to be 1.6 µm/s. Further, the Bell equation k0 (detachment rate at zero force) in experiment [2] is 32.9 s⁻¹. In addition, in experiment [6], the Bell equation k0 (detachment rate at zero force) was 32 s⁻¹. Besides, in experiment [3], the actin reattachment rate in optical trap (fast) is 17 s⁻¹ and the actin reattachment rate in optical trap (slow) was determined as 0.83 s⁻¹. The substance also displayed a k detach (1 μM ATP) in experiment [4] of 6.09 s⁻¹. In experiment [5], this substance registered a k detach (2 mM ATP) of 58.5 s⁻¹.
